The results in this text go back to US20260132178A1.

In one test the target is IL10 receptor (UniProt Q13651). The experiment in a line: cell-based or functional assay.
The target of the next test is IL4 (type II) receptor (UniProt P24394). As to the kind of experiment: cell-based or functional assay.
IL4 (type II) receptor, sequence (P24394 26-825 limits assumed, chain 1 of 2): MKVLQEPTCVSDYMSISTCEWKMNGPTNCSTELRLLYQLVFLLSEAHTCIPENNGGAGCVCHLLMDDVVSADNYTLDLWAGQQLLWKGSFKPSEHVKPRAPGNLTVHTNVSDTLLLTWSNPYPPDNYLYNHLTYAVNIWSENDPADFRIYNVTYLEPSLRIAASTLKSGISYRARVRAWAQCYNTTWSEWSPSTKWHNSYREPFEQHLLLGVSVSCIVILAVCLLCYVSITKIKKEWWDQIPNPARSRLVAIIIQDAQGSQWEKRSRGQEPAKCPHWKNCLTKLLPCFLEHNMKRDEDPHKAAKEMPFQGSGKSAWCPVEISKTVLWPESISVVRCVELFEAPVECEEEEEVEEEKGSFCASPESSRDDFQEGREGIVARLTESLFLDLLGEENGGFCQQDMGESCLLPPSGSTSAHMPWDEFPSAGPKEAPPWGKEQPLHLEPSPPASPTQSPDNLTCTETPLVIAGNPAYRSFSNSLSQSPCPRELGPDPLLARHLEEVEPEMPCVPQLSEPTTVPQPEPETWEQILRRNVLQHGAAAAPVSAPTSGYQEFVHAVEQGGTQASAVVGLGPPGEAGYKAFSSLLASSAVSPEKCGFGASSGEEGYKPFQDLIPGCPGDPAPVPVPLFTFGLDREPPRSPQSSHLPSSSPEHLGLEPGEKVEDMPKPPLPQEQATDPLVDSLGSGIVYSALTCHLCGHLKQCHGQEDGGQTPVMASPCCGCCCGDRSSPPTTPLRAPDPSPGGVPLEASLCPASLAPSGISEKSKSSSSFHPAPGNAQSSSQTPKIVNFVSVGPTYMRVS
IL4 (type II) receptor, sequence (P78552 22-427 limits assumed, chain 2 of 2, further chain): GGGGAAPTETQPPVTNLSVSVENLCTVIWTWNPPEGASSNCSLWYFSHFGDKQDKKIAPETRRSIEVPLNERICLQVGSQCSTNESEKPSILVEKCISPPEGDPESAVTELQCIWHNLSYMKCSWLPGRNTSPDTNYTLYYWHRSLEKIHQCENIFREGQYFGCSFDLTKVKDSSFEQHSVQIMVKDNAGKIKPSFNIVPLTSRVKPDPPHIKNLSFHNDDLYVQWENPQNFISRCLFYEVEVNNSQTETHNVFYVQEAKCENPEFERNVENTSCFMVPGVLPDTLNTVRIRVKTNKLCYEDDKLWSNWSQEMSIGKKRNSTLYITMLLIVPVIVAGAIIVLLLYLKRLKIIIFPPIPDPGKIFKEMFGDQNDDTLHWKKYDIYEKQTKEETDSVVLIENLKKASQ

IL10 receptor, sequence (Q13651 22-578 limits assumed, chain 1 of 2): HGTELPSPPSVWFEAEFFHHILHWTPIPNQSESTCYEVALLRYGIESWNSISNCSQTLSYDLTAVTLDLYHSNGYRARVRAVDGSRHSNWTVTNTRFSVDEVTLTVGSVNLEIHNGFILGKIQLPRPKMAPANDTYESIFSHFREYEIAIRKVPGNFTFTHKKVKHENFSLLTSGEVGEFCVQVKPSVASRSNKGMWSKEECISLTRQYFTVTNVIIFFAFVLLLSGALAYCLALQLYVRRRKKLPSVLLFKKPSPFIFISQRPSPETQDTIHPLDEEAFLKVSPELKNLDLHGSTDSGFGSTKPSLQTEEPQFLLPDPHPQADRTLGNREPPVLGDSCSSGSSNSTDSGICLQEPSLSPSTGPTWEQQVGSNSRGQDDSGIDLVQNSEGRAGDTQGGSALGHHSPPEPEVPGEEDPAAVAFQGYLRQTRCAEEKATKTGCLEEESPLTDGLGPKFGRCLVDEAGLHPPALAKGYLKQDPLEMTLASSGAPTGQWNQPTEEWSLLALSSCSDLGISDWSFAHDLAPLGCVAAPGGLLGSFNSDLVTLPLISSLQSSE
IL10 receptor, sequence (Q08334 20-325 limits assumed, chain 2 of 2, further chain): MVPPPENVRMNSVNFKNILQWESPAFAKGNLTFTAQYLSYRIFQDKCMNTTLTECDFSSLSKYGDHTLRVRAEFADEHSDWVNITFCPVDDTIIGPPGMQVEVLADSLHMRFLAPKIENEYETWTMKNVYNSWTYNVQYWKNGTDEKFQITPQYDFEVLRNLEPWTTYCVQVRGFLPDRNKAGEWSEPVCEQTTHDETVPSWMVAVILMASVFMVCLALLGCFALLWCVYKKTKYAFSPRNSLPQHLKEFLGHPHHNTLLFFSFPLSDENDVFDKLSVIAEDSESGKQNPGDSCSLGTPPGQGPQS

In turn, “IL10 (from UniProt P22301 19-178) (ligand)” yielded an HEK-Blue IL10 EC50 (STAT-3 mediated SEAP expression) in the test with IL10 receptor of 0.0264 nM.
In the test with IL4 (type II) receptor, “IL13 (from UniProt P35225 33-146) (ligand)” registered an HEK-Blue IL4/13 EC50 (STAT6-induced SEAP expression) of 0.033 nM.
